# Measured values published in patent US20220042033A1, “COMPOSITION AND METHOD FOR CONFERRING AND/OR ENHANCING TOLERANCE AGAINST HERBICIDES BY USING VARIANTS OF PPO” (FarmHannong Co., Ltd., priority 2017, published 2022).
# Tests used:
# [1] = tested on: MxPPO; experiment: PPO enzyme activity of purified MBP-fused MxPPO wild type and variants; assay type: biochemical, Myxococcus xanthus; conditions: PPO enzyme activity of purified MxPPO protein, relative to wild type
# Protocol: Thus, PPO proteins of wild type and variants were expressed as fused to MBP and were used for experiments.
# The following process for purification of PPO protein was performed in a 4° C. cold room. […] The column was washed with 3 column volumes of buffer and the presence of protein in the washing solution was examined. When the protein was no longer detected, the washing procedure was terminated. Then, the MBP-PPO protein was eluted with approximately 2 column volumes of buffer containing 20 mM maltose. The protein concentration of each eluent was determined and the elution was stopped when the protein was no longer detected. Ten microliter of each fraction was investigated for protein quantification and SDS-PAGE analysis. The highly pure fractions of PPO protein variants were used for the enzyme assay.
# Since protoporphyrinogen IX, a substrate of PPO protein, was not commercially available, it was chemically synthesized in the laboratory. Overall process was performed in dark under nitrogen stream. […] of protoporphyrin IX was dissolved in 20 ml of 20% (v/v) EtOH, and stirred under dark condition for 30 minutes. The obtained protoporphyrin IX solution was put into a 15 ml screw tube in an amount of 800 μl, and flushed with nitrogen gas for 5 minutes. To this, 1.5 g of sodium amalgam was added and vigorously shaken for 2 minutes. The lid was opened to exhaust hydrogen gas in the tube. Thereafter, the lid was closed and incubated for 3 minutes. The protoporphyrinogen IX solution was filtered using syringe and cellulose membrane filter. To 600 μl of the obtained protoporphyrinogen IX solution, approximately 300 μl of 2M MOPS [3-(N-morpholino) propanesulfonic acid] was added to adjust pH to 8.0. To determine the enzyme activity of PPO protein, a reaction mixture was prepared with the following composition (based on 10 ml): 50 mM Tris-Cl (pH 8.0); 50 mM NaCl; 0.04% (v/v) Tween 20; 40 mM glucose (0.072 g); 5 units glucose oxidase (16.6 mg); and 10 units catalase (1 μl).
# Hundred and eighty microliters of a reaction mixture […] were placed in 96 well plates and 20 μl of purified PPO proteins were added. After 50 μl of the mineral oil was layered, the reaction was initiated by adding the substrate, protoporphyrinogen IX solution, to a final concentration of 50 μM. The reaction proceeded at room temperature for 30 min and the fluorescence of protoporphyrin IX was measured using Microplate reader (Sense, Hidex) (excitation: 405 nm; emission: 633 nm). To calculate the PPO enzyme activity, the protoporphyrinogen IX solution was kept open in the air overnight to oxidize the solution. To this, 2.7 N HCl was added, and the absorbance at 408 nm was measured. A standard curve was generated using standard protoporphyrin IX, and PPO activity was measured by calibration of protoporphyrin IX using the standard curve of protoporphyrin IX.
# Activities of variants were presented relatively compared to that of wild type.
# [2] = tested on: MxPPO; experiment: Herbicide tolerance test of MxPPO wild type and variants in PPO-deficient E. coli BT3(ΔPPO), growth on herbicide-containing LB agar; assay type: cell-based, Myxococcus xanthus; conditions: relative to MxPPO WT, light; for Herbicide tolerance, tiafenacil: 2000 μM (FIG. 14); for Herbicide tolerance, flumioxazin: up to 400 μM (FIGS. 15-17); for Herbicide tolerance, sulfentrazone: up to 1000 μM (FIGS. 18-20)
# Protocol: Then, the extent of tolerance was evaluated.
Molecule,Activity (%) [1] [%],"Herbicide tolerance, tiafenacil [2]","Herbicide tolerance, flumioxazin [2]","Herbicide tolerance, sulfentrazone [2]"
"I311M + M365I: MxPPO (SEQ ID NO: 3) variant (protein, Synthetic (Protoporphyrinogen IX oxidase (MxPPO) of Myxococcus xanthus)) MHHMPRTTGMNVAVVGGGISGLAVAHHLRSRGTDAVLLESSARLGGAVGTHALAGYLVEQGPNSFLDREPATRALAAALNLEGRIRAADPAAKRRYVYTRGRLRSVPASPPAFLASDILPLGARLRVAGELFSRRAPEGVDESLAAFGRRHLGHRATQVLLDAVQTGIYAGDVEQLSVAATFPMLVKMEREHRSLILGAIRAQKAQRQAALPAGTAPKLSGALSTFDGGLQVLIDALAASLGDAAHVGARVEGLAREDGGWRLIIEEHGRRAELSVAQVVLAAPAHATAKLLRPLDDALAALVAGIAYAPMAVVHLGFDAGTLPAPDGFGFLVPAEEQRRMLGAIHASTTFPFRAEGGRVLYSCIVGGARQPGLVEQDEDALAALAREELKALAGVTARPSFTRVFRWPLGIPQYNLGHLERVAAIDAALQRLPGLHLIGNAYKGVGLNDCIRNAAQLADALVAGNTSHAP",75,+ (1-9 fold higher tolerance),++ (10-99 fold higher tolerance),+ (1-9 fold higher tolerance)
"L332T + M365V: MxPPO (SEQ ID NO: 3) variant (protein, Synthetic (Protoporphyrinogen IX oxidase (MxPPO) of Myxococcus xanthus)) MHHMPRTTGMNVAVVGGGISGLAVAHHLRSRGTDAVLLESSARLGGAVGTHALAGYLVEQGPNSFLDREPATRALAAALNLEGRIRAADPAAKRRYVYTRGRLRSVPASPPAFLASDILPLGARLRVAGELFSRRAPEGVDESLAAFGRRHLGHRATQVLLDAVQTGIYAGDVEQLSVAATFPMLVKMEREHRSLILGAIRAQKAQRQAALPAGTAPKLSGALSTFDGGLQVLIDALAASLGDAAHVGARVEGLAREDGGWRLIIEEHGRRAELSVAQVVLAAPAHATAKLLRPLDDALAALVAGIAYAPIAVVHLGFDAGTLPAPDGFGFTVPAEEQRRMLGAIHASTTFPFRAEGGRVLYSCVVGGARQPGLVEQDEDALAALAREELKALAGVTARPSFTRVFRWPLGIPQYNLGHLERVAAIDAALQRLPGLHLIGNAYKGVGLNDCIRNAAQLADALVAGNTSHAP",68,+ (1-9 fold higher tolerance),+ (1-9 fold higher tolerance),+ (1-9 fold higher tolerance)
"R95A + I311M + M365V: MxPPO (SEQ ID NO: 3) variant (protein, Synthetic (Protoporphyrinogen IX oxidase (MxPPO) of Myxococcus xanthus)) MHHMPRTTGMNVAVVGGGISGLAVAHHLRSRGTDAVLLESSARLGGAVGTHALAGYLVEQGPNSFLDREPATRALAAALNLEGRIRAADPAAKRAYVYTRGRLRSVPASPPAFLASDILPLGARLRVAGELFSRRAPEGVDESLAAFGRRHLGHRATQVLLDAVQTGIYAGDVEQLSVAATFPMLVKMEREHRSLILGAIRAQKAQRQAALPAGTAPKLSGALSTFDGGLQVLIDALAASLGDAAHVGARVEGLAREDGGWRLIIEEHGRRAELSVAQVVLAAPAHATAKLLRPLDDALAALVAGIAYAPMAVVHLGFDAGTLPAPDGFGFLVPAEEQRRMLGAIHASTTFPFRAEGGRVLYSCVVGGARQPGLVEQDEDALAALAREELKALAGVTARPSFTRVFRWPLGIPQYNLGHLERVAAIDAALQRLPGLHLIGNAYKGVGLNDCIRNAAQLADALVAGNTSHAP",37,,++ (10-99 fold higher tolerance),+ (1-9 fold higher tolerance)
"L332T + M365I: MxPPO (SEQ ID NO: 3) variant (protein, Synthetic (Protoporphyrinogen IX oxidase (MxPPO) of Myxococcus xanthus)) MHHMPRTTGMNVAVVGGGISGLAVAHHLRSRGTDAVLLESSARLGGAVGTHALAGYLVEQGPNSFLDREPATRALAAALNLEGRIRAADPAAKRRYVYTRGRLRSVPASPPAFLASDILPLGARLRVAGELFSRRAPEGVDESLAAFGRRHLGHRATQVLLDAVQTGIYAGDVEQLSVAATFPMLVKMEREHRSLILGAIRAQKAQRQAALPAGTAPKLSGALSTFDGGLQVLIDALAASLGDAAHVGARVEGLAREDGGWRLIIEEHGRRAELSVAQVVLAAPAHATAKLLRPLDDALAALVAGIAYAPIAVVHLGFDAGTLPAPDGFGFTVPAEEQRRMLGAIHASTTFPFRAEGGRVLYSCIVGGARQPGLVEQDEDALAALAREELKALAGVTARPSFTRVFRWPLGIPQYNLGHLERVAAIDAALQRLPGLHLIGNAYKGVGLNDCIRNAAQLADALVAGNTSHAP",80,,+ (1-9 fold higher tolerance),+ (1-9 fold higher tolerance)
"I311M + M365V: MxPPO (SEQ ID NO: 3) variant (protein, Synthetic (Protoporphyrinogen IX oxidase (MxPPO) of Myxococcus xanthus)) MHHMPRTTGMNVAVVGGGISGLAVAHHLRSRGTDAVLLESSARLGGAVGTHALAGYLVEQGPNSFLDREPATRALAAALNLEGRIRAADPAAKRRYVYTRGRLRSVPASPPAFLASDILPLGARLRVAGELFSRRAPEGVDESLAAFGRRHLGHRATQVLLDAVQTGIYAGDVEQLSVAATFPMLVKMEREHRSLILGAIRAQKAQRQAALPAGTAPKLSGALSTFDGGLQVLIDALAASLGDAAHVGARVEGLAREDGGWRLIIEEHGRRAELSVAQVVLAAPAHATAKLLRPLDDALAALVAGIAYAPMAVVHLGFDAGTLPAPDGFGFLVPAEEQRRMLGAIHASTTFPFRAEGGRVLYSCVVGGARQPGLVEQDEDALAALAREELKALAGVTARPSFTRVFRWPLGIPQYNLGHLERVAAIDAALQRLPGLHLIGNAYKGVGLNDCIRNAAQLADALVAGNTSHAP",71,+ (1-9 fold higher tolerance),++ (10-99 fold higher tolerance),+ (1-9 fold higher tolerance)
"R95A + A170C + M365I: MxPPO (SEQ ID NO: 3) variant (protein, Synthetic (Protoporphyrinogen IX oxidase (MxPPO) of Myxococcus xanthus)) MHHMPRTTGMNVAVVGGGISGLAVAHHLRSRGTDAVLLESSARLGGAVGTHALAGYLVEQGPNSFLDREPATRALAAALNLEGRIRAADPAAKRAYVYTRGRLRSVPASPPAFLASDILPLGARLRVAGELFSRRAPEGVDESLAAFGRRHLGHRATQVLLDAVQTGIYCGDVEQLSVAATFPMLVKMEREHRSLILGAIRAQKAQRQAALPAGTAPKLSGALSTFDGGLQVLIDALAASLGDAAHVGARVEGLAREDGGWRLIIEEHGRRAELSVAQVVLAAPAHATAKLLRPLDDALAALVAGIAYAPIAVVHLGFDAGTLPAPDGFGFLVPAEEQRRMLGAIHASTTFPFRAEGGRVLYSCIVGGARQPGLVEQDEDALAALAREELKALAGVTARPSFTRVFRWPLGIPQYNLGHLERVAAIDAALQRLPGLHLIGNAYKGVGLNDCIRNAAQLADALVAGNTSHAP",41,,+ (1-9 fold higher tolerance),+ (1-9 fold higher tolerance)
"R95A + I168C + M365I: MxPPO (SEQ ID NO: 3) variant (protein, Synthetic (Protoporphyrinogen IX oxidase (MxPPO) of Myxococcus xanthus)) MHHMPRTTGMNVAVVGGGISGLAVAHHLRSRGTDAVLLESSARLGGAVGTHALAGYLVEQGPNSFLDREPATRALAAALNLEGRIRAADPAAKRAYVYTRGRLRSVPASPPAFLASDILPLGARLRVAGELFSRRAPEGVDESLAAFGRRHLGHRATQVLLDAVQTGCYAGDVEQLSVAATFPMLVKMEREHRSLILGAIRAQKAQRQAALPAGTAPKLSGALSTFDGGLQVLIDALAASLGDAAHVGARVEGLAREDGGWRLIIEEHGRRAELSVAQVVLAAPAHATAKLLRPLDDALAALVAGIAYAPIAVVHLGFDAGTLPAPDGFGFLVPAEEQRRMLGAIHASTTFPFRAEGGRVLYSCIVGGARQPGLVEQDEDALAALAREELKALAGVTARPSFTRVFRWPLGIPQYNLGHLERVAAIDAALQRLPGLHLIGNAYKGVGLNDCIRNAAQLADALVAGNTSHAP",38,,+ (1-9 fold higher tolerance),+ (1-9 fold higher tolerance)
